This is an account of results in article PMC10992505, “Customized exogenous ferredoxin functions as an efficient electron carrier” (Bioresources and Bioprocessing, 2021).

B1: Drosophila melanogaster Fdx2 (DmFdx2) (natural protein, UniProt Q8SZA8 30-152, looked up)
chain: STGLALKTKDVVNITFVRANGDKIKTSGKVGDSLLDVVVNNNVDLDGFGACEGTLTCSTCHLIFKTSDFEKLPDKPGDEELDMLDLAYELTDTSRLGCQITLSKDMEGLEVHVPSTINDARAA
notes: Drosophila melanogaster ferredoxin 2 (Fdx2), plant-type [2Fe-2S] ferredoxin; Carries a [2Fe-2S] cluster; Cloning into pET28a at NdeI would place the His6 tag at the N-terminus (surmised); also called free Fdx; plant-type Fdx; source: E. coli BL21(DE3), purified (Ni-NTA, Resource Q anion exchange)
B2: KshA, Rieske-type oxygenase of 3-ketosteroid-9-hydroxylase from Rhodococcus erythropolis (enzyme)
chain: MALGTGPLTTTDASTQSGAGEEIREIEAAAPPARFARGWHCLGLSNTYRDGQPHQIEAFGTSLVVFADSKGDIKILDAYCRHMGGNLAHGTVKGDSIACPFHDWRWGGNGKCTAIPYARRVPPLAKTRAWTTLEKNGQLFVWHDPQGNPPPAEVTIPDIEGFGSDEWSDWSWNTLTIEGSHCREIVDNVVDMAHFFYVHYSFPKYFKNIFEGHVASQYMESVGREDIISGTNYGDPNAVLRSDASYFGPSYMIDWIKSEANGQIIETVLINCHYPISNNAFVLQYGAMVKKLPGMDDESTAAMAAQFTEGVEMGFLQDVEIWKNKAPIDNPLLSEEDGPVYQLRRWYNQFYTDVENVTEDMTKRFEFEIDTTRAVESWKREVAENVAARDAQALETTS
B3: (Tepidiphilus thermophilus) (protein)
chain: VRTMEVAAVERPSEDIVVLHLTRPDRRPLPRWSPGAHIDIECGEPDRSRQYSLCSDPENRDAWRVAVQRDPASRGGSRWIHEEVRPGMLLRVRGPRNSFRLDEHAPRYLFLAGGIGITPIMTMAARAKELGTDYELHYSVRSRTSLIFVDELRQIHGDRLHVYVSEEGVRNDLAALIRRASAGTQIYACGPQRMLDTLERLIENRPEVTLRVEHFFGEPSHLDPAKERPFQVVLRNSGLTVEVPADKTLLEVLRAYNIEVQSDCEEGLCGTCEVSVVEGEVDHRDSVLTRAERRENRRMMCCCSRAKTERLVLDL

Data set [1] has as its system T1, TDO (TDO_R; toluene 2,3-dioxygenase reductase with TDO-Fdx).
T1 construct: gene todA
The note with it: electron acceptor not stated; MTDO, plant-type cluster; fusion numbering.

Data set [2] concerns the target T2, PRF (CYP116B46 reductase domain, V465-L779) (Tepidiphilus thermophilus, UniProt A0A0K6ITW2, C736H/C766H, form not given).
T2 construct: gene Ga0061068_103196
Put plainly: NADH oxidation, absorbance […] nm. The data set is classed as biochemical.

For data set [3], the target named is PRF, reductase domain and Fdx (V465-L779) of Tepidiphilus thermophilus self-sufficient P450 CYP116B46 (Tepidiphilus thermophilus). Put plainly: ITC; 0.2 mM DmFdx2 in the syringe, 2 uL injections into 0.02 mM KshA or PRF in the cell; 20 mM HEPES pH 7.4, 25 °C; one-site binding model.
Data set [4] has as its target B2. Described as above. The note with it: both partners purified.
In data set [5] the target is B1. The data set is described as above. The note with it: both partners purified.
Substrate in the data set “purified protein”: NC(=O)C1=CN([C@@H]2O[C@H](COP(=O)(O)OP(=O)(O)OC[C@H]3O[C@@H](n4cnc5c(N)ncnc54)[C@H](O)[C@@H]3O)[C@@H](O)[C@H]2O)C=CC1
As to the kind of experiment: purified protein. The data set is classed as biochemical, Tepidiphilus thermophilus.

T2 sequence (A0A0K6ITW2 entry or part of it C736H/C766H, form open): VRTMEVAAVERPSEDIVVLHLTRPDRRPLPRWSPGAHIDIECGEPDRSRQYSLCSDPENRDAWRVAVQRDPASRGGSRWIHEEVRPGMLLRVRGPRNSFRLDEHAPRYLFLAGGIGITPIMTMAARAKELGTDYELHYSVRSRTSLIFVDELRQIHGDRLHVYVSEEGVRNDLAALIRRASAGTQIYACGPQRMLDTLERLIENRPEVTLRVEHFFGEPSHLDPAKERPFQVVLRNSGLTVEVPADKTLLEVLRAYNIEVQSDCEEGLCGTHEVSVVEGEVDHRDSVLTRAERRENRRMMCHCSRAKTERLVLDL

As to `NC(=O)C1=CN([C@@H]2O[C@H](COP(=O)(O)OP(=O)(O)OC[C@H]3O[C@@H](n4cnc5c(N)ncnc54)[C@H](O)[C@@H]3O)[C@@H](O)[C@H]2O)C=CC1` [NADH], the Km in data set [1] was determined as 63.5 ± 2.95 µM; in data set [2] it was 63.1 ± 2.37 µM.
In data set [3], B1 displayed a Ka of 1.5e+07 M⁻¹, a dH of -8 kJ/mol and a stoichiometry N of 0.75. In addition, in data set [4], the dH was -6 ± 0.13 kJ/mol and the “stoichiometry N” value was determined as 0.4 ± 0.02.
For B2, the Ka in data set [5] amounted to 2.1e+07 M⁻¹.
Take B3: in the data set “purified protein”, the Km was found to be 39.11 ± 1.49 µM, the kcat turned out to be 66.43 ± 0.34 s⁻¹ and the catalytic efficiency (kcat/Km) turned out to be 1.7e+06 M⁻¹ s⁻¹.

By Km is commonly meant the substrate concentration at which the rate is half of its maximum. The stoichiometry N is a count of units in the complex or per binding partner. Broadly, the kcat is the number of substrate molecules converted per active site and unit of time at saturation. Usually kcat/Km stands for the second-order rate constant that governs catalysis at low substrate concentration.
